Numbering of substitutions follows the chain as printed. In names and notes the source's numbering stands. Values belong to the molecule of their own block, whether it stands above or below them.
Experiments:
[1] = Kinetic assessment of adenosine deaminase activity (ammonia assay, Michaelis-Menten); type: biochemical; conditions: for Km / Vmax / kcat: [E] = 8.5 nM; for kcat: kcat=Vmax/0.0085/60; for kinetics properties compared to WT: pH 7.6 and pH 6.5
Outline: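 Coupled ammonia assay: rHuADA2 WT or variants (1 μg/mL, 17 nM in 2× mix) with adenosine 20 μM–20 mM, α-ketoglutarate, NADPH and GDH, at pH 7.6 or pH 6.5 (PIPES), room temperature. Michaelis-Menten fit gave Km, Vmax, kcat, kcat/Km.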

[2] = Spectrophotometric adenosine deaminase assay at varying pH (pH optimum); type: biochemical
Experimental: Adenosine deaminase activity of rHuADA2 and variants at varying pH were assessed to determine the pH optimum of each. The adenosine deaminase activity was determined spectrophotometrically by direct measurement of changes in adenosine absorbance. […] During the deamination reaction, the absorbance of ADO decreases while that of INO increases with time. Since the dynamic changes in absorbance make it difficult to monitor activity at a single wavelength, the relative ADO activity was determined as a ratio of the ADO peak to isobestic point (i.e. the wavelength where ADO and INO have the same extinction coefficient). The isobestic point, which is 253 nm, remains unchanged and is concentration independent, so that it is the reference point to correct for volume or intensity discrepancies.
To construct the standard curve for ADO and INO, a series of solution mixtures in 0.001% Tween-20 containing different concentrations of ADO and INO were prepared. The total concentration of ADO and INO mix was 50 μM, in 1×PBS (10 mM phosphate, 137 mM NaCl, 2.7 mM KCl), pH 7.4. The samples were scanned with the wavelengths between 220 nm and 300 nm to determine the isosbestic point, where all spectra cross.
For performing the spectrophotometric adenosine deaminase assay of ADA2 and variants, a 2× solution containing 10 mM ADO in 100 mM potassium phosphate buffer (KPB), 0.1% Tween-20 at different pHs (i.e. 5.5, 6, 6.5, 6.75, 7, 7.25, 7.4, 7.75 and 8) were prepared. A separate 2× solution containing 2 μg/mL WT rHuADA2 or variants were prepared in the same 100 mM potassium phosphate buffer (KPB), 0.1% Tween-20 at the respective pH (i.e. 5.5, 6, 6.5, 6.75, 7, 7.25, 7.4, 7.75 and 8). An equal volume of the ADO solution and the ADA2 solution (wildtype or variants) were mixed to initiate reaction. At each time point (i.e. 1, 3, 5, 7, 9, 11, 13 and 15 min), a small aliquot (4 μl) was removed and diluted 50 times by adding to 196 μl 1×PBS, pH 7.4. The diluted samples were further diluted 2 fold (in duplicates) by adding 85 μl samples to 85 μl 1×PBS in a UV-transparent half area plate. The absorbance at 253 nm and 261 nm were measured of each diluted sample.
Adenosine concentration was determined using the A261/A253 ratio and the standard curve. Adenosine deaminase activity was measured by negative change in ADO concentration per min×100.

[3] = Heparin binding ELISA (heparin coated microtiter plate); conditions: single and S265N combination variants (Table 34)
Experimental: A 96-well plate was coated with 100 μL of 200 μg/mL heparin sodium salt (Calibochem, EMD Milipore, Billerica, Mass.; Cat. No. 375095) in Na2CO3 buffer (pH 9.6), overnight at 4° C. The wells were blocked with 5% milk in PBS, and washed 6 times with PBS. 3 μM of select rHuADA2 variants (see Table 20), WT rHuADA2 (positive control) and WT rHuADA1 (negative control) were added to the wells individually and incubated for 2 hours at room temperature, followed by washing 6 times with PBS. 100 μL of 1:1000 diluted horseradish peroxidase (HRP)-anti-FLAG antibody (Abcam, Cambridge, UK; Cat. No. Ab1238) was added to the wells to detect binding and incubated at room temperature for 1 hour. The ELISA reactions were developed by adding the 3,3′,5,5′-Tetramethylbenzidine (TMB) substrate solution (Pierce, Thermo Fisher Scientific, Rockford, Ill.) according the manufacturer's instructions and reading the optical density at 450 nm (OD450) on a plate reader.

[4] = Thermal stability by differential scanning fluorimetry (DSF); type: physicochemical; conditions: 0.1-1 mg/mL protein
Experimental: The stability of the rHuADA2 WT and variants was measured by differential scanning fluorimetry (DSF) at increasing temperatures. DSF measures conformational stability, which correlates with thermal stability. The melting temperature (Tm) in DSF is defined as the midpoint of the protein unfolding transition.
Non-PEGylated WT rHuADA2, non-PEGylated rHuADA2 variants, and PEGylated forms of WT rHuADA2 and rHuADA2 variants were prepared at concentrations of 0.1-1 mg/mL and mixed with the ROX™ protein thermal shift dye (Applied Biosystems, Carlsbad, Calif.; Cat. No. 4461146) to a final dye concentration that corresponds to a 125-fold dilution of the stock ROX™ solution. Protein samples were then loaded into 96-well plate at a volume of 20 μL/well in triplicate. A ViiA7 RT-PCR System (Applied Biosystems, Carlsbad, Calif.) was used to measure the shift in fluorescence as the temperature of the samples were increased. The reactions were subjected to the following steps: incubation at 25° C. for 2 min; ramping of temperature from 25 to 99° C. at a rate of 0.05° C. per second; followed by a 99° C. incubation for 2 min. The wavelengths used for emission and excitation were 623 nanometers (nm) and 580 nm, respectively.

Heparin Binding ELISA Average OD450 [3]: 1.03
B3: S265N/R23E: ADA2 combination variant SEQ ID NO:61 (protein)
chain: IDETRAHLLLKEKMMRLGGELVLNTKEELANERLMTLKIAEMKEAMRTLIFPPSMHFFQAKHLIERSQVFNILRMMPKGAALHLHDIGIVTMDWLVRNVTYRPHCHICFTPRGIMQFRFAHPTPRPSEKCSKWILLEDYRKRVQNVTEFDDSLLRNFTLVTQHPEVIYTNQNVVWSKFETIFFTISGLIHYAPVFRDYVFRSMQEFYEDNVLYMEIRARLLPVYELSGEHHDEEWSVKTYQEVAQKFVETHPEFIGIKIIYNDHRSKDVAVIAESIRMAMGLRIKFPTVVAGFDLVGHEDTGHSLHDYKEALMIPAKDGVKLPYFFHAGETDWQGTSIDRNILDALMLNTTRIGHGFALSKHPAVRTYSWKKDIPIEVCPISNQVLKLVSDLRNHPVATLMATGHPMVISSDDPAMFGAKGLSYDFYEVFMGIGGMKADLRTLKQLAMNSIKYSTLLESEKNTFMEIWKKRWDKFIADVATK
modifications: human ADA2 S262N/R20E, mature numbering
Km ([1]; pH 6.5): 1430 µM
Vmax ([1]; pH 6.5): 53.25 µM/min
kcat ([1]; pH 6.5): 104.41 s⁻¹
Km ([1]; pH 7.6): 2900 µM
Vmax ([1]; pH 7.6): 63.13 µM/min
kcat ([1]; pH 7.6): 123.78 s⁻¹
kinetics properties compared to WT [1]: greatest improvements in catalytic activity at pH 6.5
Adenosine deaminase activity Δ [ADO]/min × (−100) ([2]; pH 5.5): 27.34
Adenosine deaminase activity Δ [ADO]/min × (−100) ([2]; pH 6): 38.26
Adenosine deaminase activity Δ [ADO]/min × (−100) ([2]; pH 6.5): 45.58
Adenosine deaminase activity Δ [ADO]/min × (−100) ([2]; pH 6.75): 48.49
Adenosine deaminase activity Δ [ADO]/min × (−100) ([2]; pH 7): 51.90
Adenosine deaminase activity Δ [ADO]/min × (−100) ([2]; pH 7.25): 56.12
Adenosine deaminase activity Δ [ADO]/min × (−100) ([2]; pH 7.4): 50.44
Adenosine deaminase activity Δ [ADO]/min × (−100) ([2]; pH 7.75): 24.42
Adenosine deaminase activity Δ [ADO]/min × (−100) ([2]; pH 8): 4.63
Tm, melting temperature by DSF [4]: 59.6 °C

Heparin Binding ELISA Average OD450 [3]: 0.93
B5: S265N/R23E/K374E: ADA2 combination variant SEQ ID NO:63 (protein)
chain: B3 chain with K371E
modifications: human ADA2 S262N/R20E/K371E, mature numbering
Km ([1]; pH 6.5): 1290 µM
Vmax ([1]; pH 6.5): 63.74 µM/min
kcat ([1]; pH 6.5): 124.98 s⁻¹
Km ([1]; pH 7.6): 2870 µM
Vmax ([1]; pH 7.6): 82.38 µM/min
kcat ([1]; pH 7.6): 161.53 s⁻¹
kinetics properties compared to WT [1]: greatest improvements in catalytic activity at pH 6.5
Adenosine deaminase activity Δ [ADO]/min × (−100) ([2]; pH 5.5): 37.94
Adenosine deaminase activity Δ [ADO]/min × (−100) ([2]; pH 6): 52.70
Adenosine deaminase activity Δ [ADO]/min × (−100) ([2]; pH 6.5): 66.08
Adenosine deaminase activity Δ [ADO]/min × (−100) ([2]; pH 6.75): 67.95
Adenosine deaminase activity Δ [ADO]/min × (−100) ([2]; pH 7): 74.68
Adenosine deaminase activity Δ [ADO]/min × (−100) ([2]; pH 7.25): 77.81
Adenosine deaminase activity Δ [ADO]/min × (−100) ([2]; pH 7.4): 67.77
Adenosine deaminase activity Δ [ADO]/min × (−100) ([2]; pH 7.75): 35.97
Adenosine deaminase activity Δ [ADO]/min × (−100) ([2]; pH 8): 2.04
Tm, melting temperature by DSF [4]: 60.4 °C

The next lines start with the molecule.

B1: S265N/K374E: ADA2 combination variant SEQ ID NO:60 (protein)
chain: B3 chain with E20R, K371E
modifications: human ADA2 S262N/K371E, mature numbering
Km ([1]; pH 6.5): 1410 µM
Vmax ([1]; pH 6.5): 57.13 µM/min
kcat ([1]; pH 6.5): 112.02 s⁻¹
Km ([1]; pH 7.6): 2540 µM
Vmax ([1]; pH 7.6): 87.44 µM/min
kcat ([1]; pH 7.6): 171.45 s⁻¹
kinetics properties compared to WT [1]: greatest improvements in catalytic activity at pH 6.5
Adenosine deaminase activity Δ [ADO]/min × (−100) ([2]; pH 5.5): 31.84
Adenosine deaminase activity Δ [ADO]/min × (−100) ([2]; pH 6): 44.31
Adenosine deaminase activity Δ [ADO]/min × (−100) ([2]; pH 6.5): 50.23
Adenosine deaminase activity Δ [ADO]/min × (−100) ([2]; pH 6.75): 54.55
Adenosine deaminase activity Δ [ADO]/min × (−100) ([2]; pH 7): 59.68
Adenosine deaminase activity Δ [ADO]/min × (−100) ([2]; pH 7.25): 60.07
Adenosine deaminase activity Δ [ADO]/min × (−100) ([2]; pH 7.4): 57.15
Adenosine deaminase activity Δ [ADO]/min × (−100) ([2]; pH 7.75): 28.28
Adenosine deaminase activity Δ [ADO]/min × (−100) ([2]; pH 8): 1.77
Heparin Binding ELISA Average OD450 [3]: 0.6
Tm, melting temperature by DSF [4]: 61.3 °C

B2: S265N/K374D: ADA2 combination variant SEQ ID NO:59 (protein)
chain: B3 chain with E20R, K371D
modifications: human ADA2 S262N/K371D, mature numbering
Km ([1]; pH 6.5): 1510 µM
Vmax ([1]; pH 6.5): 43.85 µM/min
kcat ([1]; pH 6.5): 85.98 s⁻¹
Km ([1]; pH 7.6): 2860 µM
Vmax ([1]; pH 7.6): 78.29 µM/min
kcat ([1]; pH 7.6): 153.51 s⁻¹
Adenosine deaminase activity Δ [ADO]/min × (−100) ([2]; pH 5.5): 22.89
Adenosine deaminase activity Δ [ADO]/min × (−100) ([2]; pH 6): 33.51
Adenosine deaminase activity Δ [ADO]/min × (−100) ([2]; pH 6.5): 39.06
Adenosine deaminase activity Δ [ADO]/min × (−100) ([2]; pH 6.75): 41.58
Adenosine deaminase activity Δ [ADO]/min × (−100) ([2]; pH 7): 45.98
Adenosine deaminase activity Δ [ADO]/min × (−100) ([2]; pH 7.25): 42.69
Adenosine deaminase activity Δ [ADO]/min × (−100) ([2]; pH 7.4): 43.37
Adenosine deaminase activity Δ [ADO]/min × (−100) ([2]; pH 7.75): 22.29
Adenosine deaminase activity Δ [ADO]/min × (−100) ([2]; pH 8): 4.36
Heparin Binding ELISA Average OD450 [3]: 0.92
Tm, melting temperature by DSF [4]: 60.8 °C

B4: S265N/R23E/K374D: ADA2 combination variant SEQ ID NO:62 (protein)
chain: B3 chain with K371D
modifications: human ADA2 S262N/R20E/K371D, mature numbering
Km ([1]; pH 6.5): 1500 µM
Vmax ([1]; pH 6.5): 43.42 µM/min
kcat ([1]; pH 6.5): 85.14 s⁻¹
Km ([1]; pH 7.6): 3130 µM
Vmax ([1]; pH 7.6): 72.78 µM/min
kcat ([1]; pH 7.6): 142.71 s⁻¹
Adenosine deaminase activity Δ [ADO]/min × (−100) ([2]; pH 5.5): 20.27
Adenosine deaminase activity Δ [ADO]/min × (−100) ([2]; pH 6): 28.16
Adenosine deaminase activity Δ [ADO]/min × (−100) ([2]; pH 6.5): 35.51
Adenosine deaminase activity Δ [ADO]/min × (−100) ([2]; pH 6.75): 33.24
Adenosine deaminase activity Δ [ADO]/min × (−100) ([2]; pH 7): 40.08
Adenosine deaminase activity Δ [ADO]/min × (−100) ([2]; pH 7.25): 42.28
Adenosine deaminase activity Δ [ADO]/min × (−100) ([2]; pH 7.4): 34.66
Adenosine deaminase activity Δ [ADO]/min × (−100) ([2]; pH 7.75): 18.46
Adenosine deaminase activity Δ [ADO]/min × (−100) ([2]; pH 8): 4.94
Heparin Binding ELISA Average OD450 [3]: 0.69
Tm, melting temperature by DSF [4]: 59.8 °C

— patent US9969998B2, “Compositions of adenosine deaminase-2 (ADA2), variants thereof and methods of using same” (Halozyme, Inc., priority 2014, dated 2018)
